B1: minF1; the commonest letter at each place (parent)
chain: GAGACCGCAACTGAAAAGTTGTTATCAGAAATGGATGGGTTGAATTTCTGCACGTAGAAGCAAAAGGC

Variants of: B1
Assay: fraction ligated after 30 min (ligated reads / total reads); higher = more ligase activity
Details: with F1*subA RNA substrate (template-directed ligation), 42 °C
In short: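 Templates from an oligo pool encoding minimized ligase ribozyme variants were amplified by PCR, transcribed with T7, and purified on gels. Gel electrophoresis separated ligated from unligated RNAs, which were then reverse transcribed using barcoded primers and sequenced on a MiSeq, keeping core bases with quality ≥30. For each variant, fraction ligated equals ligated reads divided by total reads.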

Variant | fraction ligated
A29G G34A | 0.0509
A29G G34T | 0.00809
A29G G34C | 0.00249
A31G A35C | 0.022
A31G A35G | 0.294
A31G A35T | 0.0156
G28C A43T | 0.0901
G28C A43G | 0.0597
G28C A43C | 0.0652
A29G G33C | 0.709
A29G G33A | 0.8
A29G G33T | 0.516
A30G A43T | 0.188
A30G A43G | 0.14
A30G A43C | 0.179
A29T G37T | 0.027
A29T G37A | 0.00694
A29T G37C | 0.00775
G28C A29T A30T A31T | 0.752
A29G G42T | 0.096
A29G G42A | 0.28
A29G G42C | 0.00737
G28A G37C | 0.00899
G28A G37A | 0.00676

Variant | fraction ligated
G28A G37T | 0.0166
G28T G42A | 0.359
G28T G42C | 0.017
G28T G42T | 0.142
A29G T32C | 0.0215
A29G T32A | 0.0412
A29G T32G | 0.0222
A29G T36C | 0.0189
A29G T36A | 0.0285
A29G T36G | 0.0397
A30G A35G | 0.4
A30G A35T | 0.0595
A30G A35C | 0.0448
G28C A35G | 0.0701
G28C A35C | 0.0372
G28C A35T | 0.0136
A29C A44C | 0.607
A29C A44G | 0.748
A29C A44T | 0.705
A30C G37A | 0.009
A30C G37C | 0.00447
A30C G37T | 0.01
A30C A31G | 0.806
A30C A31T | 0.771

Variant | fraction ligated
A30C A31C | 0.714
G28T A35T | 0.051
G28T A35G | 0.437
G28T A35C | 0.0723
A29T A43T | 0.0859
A29T A43C | 0.065
A29T A43G | 0.0507
A29G A43G | 0.0803
A29G A43T | 0.0936
A29G A43C | 0.0987
A29G A44T | 0.76
A29G A44C | 0.649
A29G A44G | 0.753
A31C G33A | 0.767
A31C G33C | 0.653
A31C G33T | 0.355
A30G G37T | 0.0167
A30G G37A | 0.00857
A30G G37C | 0.00443
A29C T36A | 0.0288
A29C T36G | 0.0261
A29C T36C | 0.0172
G28C A30G | 0.816
G28C A30T | 0.825

Variant | fraction ligated
G28C A30C | 0.817
A30C T32A | 0.0274
A30C T32G | 0.019
A30C T32C | 0.00933
A31C T36C | 0.0114
A31C T36G | 0.0226
A31C T36A | 0.0194
A30T G34C | 0.00584
A30T G34A | 0.0989
A30T G34T | 0.00578
A29C G34C | 0.00225
A29C G34T | 0.00671
A29C G34A | 0.042
G28T G33C | 0.764
G28T G33T | 0.725
G28T G33A | 0.814
A29C A31C | 0.791
A29C A31T | 0.842
A29C A31G | 0.808
A30G A31T | 0.836
A30G A31C | 0.777
A30G A31G | 0.84
G28T A43T | 0.158
G28T A43G | 0.0967

Variant | fraction ligated
G28T A43C | 0.117
A29T T36C | 0.0219
A29T T36G | 0.0504
A29T T36A | 0.0343
A29C A35C | 0.00361
A29C A35G | 0.189
A29C A35T | 0.012
A29C A43C | 0.0193
A29C A43T | 0.0813
A29C A43G | 0.0549
A30C A44T | 0.703
A30C A44C | 0.565
A30C A44G | 0.686
A31C G42A | 0.279
A31C G42C | 0.00681
A31C G42T | 0.0885
G28A G34C | 0.00587
G28A G34A | 0.0882
G28A G34T | 0.00746
G28A G33C | 0.719
G28A G33T | 0.593
G28A G33A | 0.791
A31C G37A | 0.0105
A31C G37T | 0.0153

Variant | fraction ligated
A31C G37C | 0.00598
G28T | 0.806
G28C | 0.82
G28C T36G | 0.0324
G28C T36C | 0.0172
G28C T36A | 0.0306
A30G T36A | 0.0286
A30G T36G | 0.0634
A30G T36C | 0.0152
A31C | 0.813
A31G | 0.805
A30G G34T | 0.00265
A30G G34C | 0.00227
A30G G34A | 0.0439
G28C A31C | 0.664
G28C A31G | 0.798
G28C A31T | 0.814
A30T G37C | 0.0041
A30T G37T | 0.0219
A30T G37A | 0.00958
A29C G33A | 0.784
A29C G33C | 0.743
A29C G33T | 0.526
G28C T32G | 0.0241

Variant | fraction ligated
G28C T32C | 0.0192
G28C T32A | 0.0353
A31C A44C | 0.655
A31C A44G | 0.754
A31C A44T | 0.794
G28T A30G | 0.835
G28T A30C | 0.819
G28T A30T | 0.832
A29C G37T | 0.0129
A29C G37A | 0.00482
A29C G37C | 0.00528
A29T A44T | 0.741
A29T A44G | 0.734
A29T A44C | 0.59
A29G G37A | 0.0118
A29G G37T | 0.0206
A29G G37C | 0.0058
G28C G42C | 0.0102
G28C G42T | 0.0849
G28C G42A | 0.264
A31C T32G | 0.0132
A31C T32C | 0.0181
A31C T32A | 0.0431
G28C A29T | 0.831

Variant | fraction ligated
G28C A29G | 0.812
G28C A29C | 0.795
G28T A44C | 0.685
G28T A44T | 0.794
G28T A44G | 0.759
G28A T36C | 0.0146
G28A T36A | 0.0244
G28A T36G | 0.0443
G28A T32A | 0.0454
G28A T32C | 0.0224
G28A T32G | 0.0134
A29T G34A | 0.0752
A29T G34C | 0.00521
A29T G34T | 0.00673
A29C G42A | 0.283
A29C G42T | 0.0826
A29C G42C | 0.00616
G28C G37A | 0.0114
G28C G37C | 0.0045
G28C G37T | 0.0184
A31G A43T | 0.168
A31G A43G | 0.101
A31G A43C | 0.142
A29T A31G | 0.811

Variant | fraction ligated
A29T A31C | 0.798
A29T A31T | 0.828
A31C A35G | 0.199
A31C A35C | 0.0149
A31C A35T | 0.0132
A30T | 0.823
A30C | 0.806
A30G | 0.807
A30T A44C | 0.52
A30T A44G | 0.68
A30T A44T | 0.693
A30C G34C | 0.00405
A30C G34T | 0.00409
A30C G34A | 0.0885
A29T T32C | 0.0232
A29T T32A | 0.0493
A29T T32G | 0.0161
G28T G37A | 0.00866
G28T G37C | 0.00638
G28T G37T | 0.0287
G28C A44T | 0.719
G28C A44C | 0.596
G28C A44G | 0.674
A29G A31C | 0.803

Variant | fraction ligated
A29G A31T | 0.812
A29G A31G | 0.795
G28T T32C | 0.0326
G28T T32A | 0.0381
G28T T32G | 0.0263
A29T G42T | 0.0835
A29T G42C | 0.00612
A29T G42A | 0.269
A30G A44C | 0.735
A30G A44T | 0.809
A30G A44G | 0.833
A30T A31G | 0.785
A30T A31T | 0.818
A30T A31C | 0.801
G28T A31C | 0.82
G28T A31T | 0.827
G28T A31G | 0.82
A29C T32A | 0.0419
A29C T32G | 0.0113
A29C T32C | 0.0191
G28C G34C | 0.00831
G28C G34A | 0.109
G28C G34T | 0.00677
A30C A35G | 0.159

Variant | fraction ligated
A30C A35C | 0.00575
A30C A35T | 0.01
A29G A30C | 0.84
A29G A30T | 0.817
A29G A30G | 0.811
G28T G34T | 0.00519
G28T G34A | 0.141
G28T G34C | 0.00596
A30T G33T | 0.387
A30T G33C | 0.663
A30T G33A | 0.747
G28T A29C | 0.784
G28T A29G | 0.832
G28T A29T | 0.829
A30C G33A | 0.773
A30C G33C | 0.684
A30C G33T | 0.435
A29T A35C | 0.00991
A29T A35G | 0.153
A29T A35T | 0.0234
A30T G42T | 0.0705
A30T G42C | 0.00805
A30T G42A | 0.202
G28A A44G | 0.753

Variant | fraction ligated
G28A A44C | 0.667
G28A A44T | 0.773
A30G G33C | 0.805
A30G G33A | 0.821
A30G G33T | 0.672
A30C T36C | 0.0174
A30C T36G | 0.0467
A30C T36A | 0.0266
A31C A43C | 0.0314
A31C A43T | 0.0946
A31C A43G | 0.0644
A30G T32G | 0.0298
A30G T32C | 0.0409
A30G T32A | 0.108
A29C | 0.823
A29G | 0.827
A29T | 0.815
A30C G42C | 0.00724
A30C G42A | 0.217
A30C G42T | 0.0701
A30T A43G | 0.0459
A30T A43T | 0.0685
A30T A43C | 0.0532
A29C A30G | 0.827

Variant | fraction ligated
A29C A30T | 0.81
A29C A30C | 0.563
A31G A44T | 0.804
A31G A44C | 0.71
A31G A44G | 0.788
A30T T32C | 0.0167
A30T T32G | 0.0154
A30T T32A | 0.0346
A29T G33A | 0.783
A29T G33C | 0.721
A29T G33T | 0.453
A31G G33A | 0.811
A31G G33C | 0.765
G28C G33C | 0.641
G28C G33A | 0.772
G28C G33T | 0.639
A29G A35G | 0.204
A29G A35T | 0.023
A29G A35C | 0.0139
A30C A43G | 0.0454
A30C A43T | 0.0731
A30C A43C | 0.0543
A30G G42A | 0.487
A30G G42C | 0.0189

Variant | fraction ligated
A30G G42T | 0.215
A30T T36G | 0.0328
A30T T36C | 0.0213
A30T T36A | 0.0264
A30T A35T | 0.0204
A30T A35G | 0.161
A30T A35C | 0.0121
G28A G42C | 0.0107
G28A G42A | 0.279
G28A G42T | 0.0941
A29T A30C | 0.806
A29T A30T | 0.789
A29T A30G | 0.821
A31C G34C | 0.0027
A31C G34T | 0.00764
A31C G34A | 0.055
G28T T36A | 0.0434
G28T T36C | 0.0288
G28T T36G | 0.0726
G28A A43T | 0.102
G28A A43C | 0.0816
G28A A43G | 0.0763
